Reference: patent publication US20220296727A1, “Immunoconjugate” (DendroCyte BioTech Pty Ltd, priority 2019, published 2022)

Tests used:
HL-60 = test: Cytotoxicity assay on HL-60 AML cell line; type: cell-based
Description: Kinetic analysis was performed as above.
DCR-2 and an isotype control mAb were conjugated to a PBD dimer toxin, to assess potential cytotoxicity. The cytotoxicity of DCR-2-PBD and the isotype-PBD were tested against CD300f+ and CD300f− cell lines and the results are shown in FIG. 6 and Table 2.

[1] = test system: HSPC colony forming units; test: Colony forming unit toxicity assay, cord blood HSPC; type: cell-based, human
Description: CFU colonies were plated at 2×10^4 cells/well in semi-solid methylcellulose medium (MethoCult Classic, Stemcell Technologies) in a 24 well plate (Corning, N.Y., USA), were cultured at 37° C. in 5% CO2 for 14 days and counted via microscopy. Whole cord blood PBMC was used. CD34^+ progenitors were continuously exposed to multiple concentrations of DCR-2 with equal concentrations of a secondary goat anti mouse antibody conjugated to PBD dimer. As a control, only the secondary PBD dimer conjugated antibody was used as above.
(§1) CB cells, plated at 2×10^4 cells/well in semi-solid methylcellulose medium (MethoCult Classic, Stemcell Technologies) in a 24 well plate (Corning, N.Y., USA), were cultured at 37° C. in 5% CO2 for 14 days when colony forming units (CFU) were scored. DCR-2-PBD or isotype-PBD was added to each well for continuous exposure. Three CB samples were tested with duplicate wells performed in each experiment.

primary AML = test: Colony forming unit assay, primary AML samples; type: cell-based, human
Description: as §1
Two primary AML samples were tested: CRGH1 with low CD300f expression (MFI ratio of 2.6) and CRGH9 with a high CD300f expression (MFI 109.9) (FIG. 9).

U937 cells = test: U937 subcutaneous xenograft model in NSG mice; type: in vivo, mouse; details: for tumour growth compared to isotype-PBD (300 ug/kg): intraperitoneal, once
Description: NOD.Cg-Prkdc^scld//2rg^tm1Wjl/SzJ (NSG) mice obtained from Australian BioResources were housed under specific pathogen free conditions. In the subcutaneous model, 2×10^6 U937 cells were injected under the skin on the right flank. Tumours were measured daily with electronic calipers. When the mean volume of the tumours was >100 mm^3, DCR-2-PBD, isotype-PBD or PBS was injected intraperitoneally once. […] Tumour volume was measured until >1000 mm^3 when mice were euthanised as required by the ethics protocol.
In the flank injection model 2×10^6 U937 cells were injected subcutaneously into NSG mice and the subsequent tumors were measured daily via caliper to calculate the volume. Mice were injected with 150 ug/kg of DCR-2ADC, Isotype-ADC or an equal volume of PBS on day 6. Mice were euthanized once the volumes reached 1000 mm^3. Survival and tumor size was recorded.
To determine the effect of DCR-2PBD in a mouse model based on U937 cells, mice were injected subcutaneously with cell line U937. After 6 days, mice were administered PBS, […] of CMRF-81PBD or […] of DCR-2PBD intraperitoneally and monitored for tumour growth. Tumour volume and survival of the mice were assessed and the results are shown in FIGS. 17 and 18, respectively.

[2] = test system: human HSPC and myeloid cells; test: Humanised (CD34+ engrafted) NSG mouse model; type: in vivo; details: single dose 300 ug/kg, day 7
Description: The humanised mouse model used frozen CD34^+ cells (>95% purity) isolated by positive selection (Miltenyi 130-046-702) according to the manufacturer's instructions from two pooled CB samples. Each NSG mouse was injected with 100,000 CD34+ cells 4 hours after receiving a 150cGy irradiation dose. Engraftment as determined by % human CD45+ cells in venous blood was assessed at 12 weeks. Mice were assigned to treatment groups to have similar means of human CD45+ percentage in the PB (10.16% DCR-2-PBD cohort and 10.74% isotype-PBD cohort). Mice were then injected with 300 ug/kg of DCR-2-PBD or isotype-PBD. Mice were euthanised on day 7 and human CD45+ cells from BM (bilateral femurs and tibias) and 300 μl blood were enumerated and phenotyped by flow cytometry.

B1: DCR-2PBD: anti-CD300f mAb DCR-2 conjugated to pyrrolobenzodiazepine dimer via Cathepsin B-cleavable linker MA-PEG4-VA-PBD; drug to antibody ratio 3.3 (conjugate)
VH: MESGGGLVQPGGPLKLSCAASGFGFSGSWMSWVRQAPGKGLEWIGQINPDSSTINYTPSLKDKFIISRDNAKNTLYLQINKVRSEDTALYYCARRGFFEGYSAWFAYW
VL: ILMTQTPKFLLVSAGDRVTITCKASQSVSNDVAWYQQKPGQSPSLLIYYASNRNTGVPDRFTGSGYETDFTFTISTVQAEDLAVYFCQQDYTSPWTFGGG
- IC50 (HL-60): 5.44 pM
- reduction in total CFUs ([1]; 7.84 pM (p=0.0033)): Significant reductions
- inhibition of all major CFU subtypes ([1]; 32.9 pM): inhibited
- reduction in total CFUs ([1]; 39.21 pM (p<0.0001)): Significant reductions
- inhibition of all major CFU subtypes ([1]; 196.1 pM): inhibited
- reduction in total CFUs ([1]; 196.1 pM (p<0.0001)): Significant reductions
- toxicity against primary AML CFU (primary AML; CRGH1 (low CD300f expression), 196.1 pM): Significant toxicity
- toxicity against primary AML CFU (primary AML; CRGH9 (high CD300f expression), all dose levels (P<0.001)): Significant toxicity
- survival compared to isotype-PBD (300 ug/kg) (U937 cells; 150 ug/kg (p=0.0017)): significantly increased
- tumour growth compared to isotype-PBD (300 ug/kg) (U937 cells; 150 ug/kg): delayed
- survival compared to isotype-PBD (300 ug/kg) (U937 cells; 300 ug/kg (p=0.0017)): significantly increased
- tumour growth compared to isotype-PBD (300 ug/kg) (U937 cells; 300 ug/kg): delayed
- CD34+ cells as percentage of total human CD45+ cells [2]: 3.09%
- CD34+CD38-CD90+ cells as percentage of total human CD45+ cells [2]: 0.16%
- lymphocytes in the peripheral blood [2]: 208.5 cells/μl
- mean CD34+CD38-CD90+ cell count in BM [2]: 0.05×10^4
- myeloid cells in the peripheral blood [2]: 0.31 cells/μl
